± gives the standard deviation of the averaged measurements.
Tested on: ATP
Assay: switch fluorescence ratio, 500 uM ATP over buffer (Cy3 cluster intensity, sum of 5 cycles each) (fold (ratio)); higher = stronger signal-on switching upon ATP binding; sequences stand for … in TCGTCGGCAGCGTCAGATGTGTATAAGAGACAGTTTTTTTTTTTTTTTTTTTTTTTTT…TC
Settings: aptamer strand: ATP DNA aptamer (quencher-CACCTGGGGGAGTATTGCGGAGGAAGG + anchor), 100 nM annealed; ATP concentration: 500 uM
Method in brief: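 Five buffer/ATP imaging cycles were run on Cy3-labelled switching-strand clusters on a modified Illumina MiSeq flow-cell, with NaOH stripping and re-annealing between cycles. In each cycle, clusters annealed to 100 nM quencher-labelled ATP aptamer were imaged in selection buffer, then after 15 min with 500 uM ATP at 22 °C. Per cluster, the fluorescence ratio is summed target-cycle over summed buffer-cycle Cy3 intensity, averaged per switch-domain sequence. Only clusters within 100-1000 RFU were kept.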
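Note: ATP exposure 15 min at 22 °C before imaging.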

Row | Sequence | switch fluorescence ratio
1 | ACGAGGTTGG | 1.04 ± 0.084
2 | ACGAGTGAAA | 1.02 ± 0.045
3 | ACGAGTGGCG | 0.933 ± 0.021
4 | ACGAGTTCCC | 1.01 ± 0.043
5 | ACGAGTTTGG | 0.963 ± 0.036
6 | ACGAGTTTTT | 1.01 ± 0.021
7 | ACGATAGGGG | 1.03 ± 0.031
8 | ACGATAGGTA | 1.06 ± 0.026
9 | ACGATGAAGG | 1.01 ± 0.021
10 | ACGATGATGT | 1.0279 ± 0.00059
11 | ACGATGCGGG | 1.09 ± 0.025
12 | ACGATGGCTG | 1.04 ± 0.015
13 | ACGATTAGTT | 0.971 ± 0.032
14 | ACGATTGGGT | 0.992 ± 0.013
15 | ACGCAGTATA | 1.05 ± 0.013
16 | ACGCAGTTCT | 1.061 ± 0.008
17 | ACGCCCATTT | 1.15 ± 0.06
18 | ACGCCGGATT | 1.01 ± 0.027
19 | ACGCCGGCGA | 0.9729 ± 0.002
20 | ACGCCGGCTT | 1.272 ± 0.0019
21 | ACGCCGTATG | 1 ± 0.011
22 | ACGCGCGGAA | 1.008 ± 0.003
23 | ACGCTATCGC | 1.526 ± 0.0041
24 | ACGCTCCTAC | 2.64 ± 0.028
25 | ACGCTCGACC | 1.75 ± 0.15

Row | Sequence | switch fluorescence ratio
26 | ACGCTGGTGT | 1.34 ± 0.44
27 | ACGCTGTCGG | 1.006 ± 0.0068
28 | ACGCTGTTGG | 1.01 ± 0.035
29 | ACGGAAAGTT | 0.9876 ± 0.0071
30 | ACGGAATTTT | 1.09 ± 0.08
31 | ACGGAGACGG | 0.979 ± 0.067
32 | ACGGAGGGTT | 0.992 ± 0.01
33 | ACGGATATGG | 0.98 ± 0.011
34 | ACGGATCCTT | 1.026 ± 0.0059
35 | ACGGATTAGG | 1.01 ± 0.021
36 | ACGGCAGGAA | 1.04 ± 0.043
37 | ACGGCATCAT | 1.076 ± 0.0017
38 | ACGGCCGGGG | 1.04 ± 0.027
39 | ACGGCGCTTA | 1.19 ± 0.054
40 | ACGGCGGGGG | 1.15 ± 0.25
41 | ACGGCTAGCG | 1.02 ± 0.022
42 | ACGGCTGCGT | 1.05 ± 0.029
43 | ACGGCTTACT | 1.208 ± 0.0019
44 | ACGGGCAGAG | 1.02 ± 0.013
45 | ACGGGCCGGT | 0.98 ± 0.069
46 | ACGGGCGCAG | 0.994 ± 0.017
47 | ACGGGCTGCT | 1 ± 0.018
48 | ACGGGGAGGG | 1.04 ± 0.037
49 | ACGGGGGAGT | 1.03 ± 0.019
50 | ACGGGGGCGC | 0.986 ± 0.059

Row | Sequence | switch fluorescence ratio
51 | ACGGGGGCGG | 1 ± 0.033
52 | ACGGGGGCTT | 1.04 ± 0.062
53 | ACGGGGGGTT | 1.05 ± 0.085
54 | ACGGGGTCCG | 0.95 ± 0.03
55 | ACGGGGTCT | 1.02 ± 0.012
56 | ACGGGGTGGT | 1.065 ± 0.0059
57 | ACGGGGTGTA | 0.986 ± 0.041
58 | ACGGGTATGG | 1.01 ± 0.017
59 | ACGGGTGAGC | 1.09 ± 0.011
60 | ACGGGTGGGA | 1.005 ± 0.0036
61 | ACGGGTTGGC | 1.064 ± 0.0044
62 | ACGGGTTTGT | 0.9774 ± 0.0036
63 | ACGGTAAGTG | 1.02 ± 0.042
64 | ACGGTATCTT | 1.13 ± 0.019
65 | ACGGTATGTG | 1.03 ± 0.033
66 | ACGGTATTTG | 1.13 ± 0.035
67 | ACGGTCACCC | 1.66 ± 0.07
68 | ACGGTCGGA | 0.9979 ± 0.0048
69 | ACGGTCGTTA | 0.975 ± 0.027
70 | ACGGTCTGGC | 1.02 ± 0.035
71 | ACGGTGGTGT | 1.03 ± 0.016
72 | ACGGTTGAGC | 1 ± 0.021
73 | ACGGTTGATG | 0.986 ± 0.021
74 | ACGGTTGTTT | 1.0154 ± 0.00077
75 | ACGGTTTAAC | 1.105 ± 0.005

Row | Sequence | switch fluorescence ratio
76 | ACGGTTTTTG | 0.993 ± 0.029
77 | ACGTAAACGC | 1.085 ± 0.0018
78 | ACGTACATGT | 1.44 ± 0.018
79 | ACGTAGGCGG | 1.02 ± 0.062
80 | ACGTATATTG | 1.058 ± 0.0052
81 | ACGTCAAGGG | 1.1 ± 0.067
82 | ACGTCAAGTA | 0.985 ± 0.022
83 | ACGTCGCATT | 1.19 ± 0.035
84 | ACGTCGCCGG | 0.987 ± 0.038
85 | ACGTCGGGCT | 1.01 ± 0.021
86 | ACGTCGGTAC | 3 ± 0.49
87 | ACGTCTTACT | 1.101 ± 0.0018
88 | ACGTCTTAGT | 1 ± 0.021
89 | ACGTGCAATT | 1.37 ± 0.21
90 | ACGTGGTATG | 1.02 ± 0.015
91 | ACGTGTACGG | 1.03 ± 0.022
92 | ACGTGTGAC | 1 ± 0.023
93 | ACGTTAAGCG | 1.01 ± 0.035
94 | ACGTTAATGC | 2.09 ± 0.21
95 | ACGTTAGGTC | 1.04 ± 0.019
96 | ACGTTATTTG | 1.11 ± 0.052
97 | ACGTTCGGAG | 1.05 ± 0.05
98 | ACGTTCGGCG | 0.9968 ± 0.0021
99 | ACGTTGCAGA | 1.006 ± 0.006
100 | ACGTTGCTAA | 1.0246 ± 0.00021
